In patent publication US20190388506A1:

What was measured:
[1] = target: C3b (purified) (UniProt P01024); assay: cell-based or functional assay
[2] = target: C3 convertase (C3bBb) (human) (UniProt P01024); assay: cell-based or functional assay
C3 convertase (C3bBb) (human), sequence (P01024 749-1663, chain 1 of 2): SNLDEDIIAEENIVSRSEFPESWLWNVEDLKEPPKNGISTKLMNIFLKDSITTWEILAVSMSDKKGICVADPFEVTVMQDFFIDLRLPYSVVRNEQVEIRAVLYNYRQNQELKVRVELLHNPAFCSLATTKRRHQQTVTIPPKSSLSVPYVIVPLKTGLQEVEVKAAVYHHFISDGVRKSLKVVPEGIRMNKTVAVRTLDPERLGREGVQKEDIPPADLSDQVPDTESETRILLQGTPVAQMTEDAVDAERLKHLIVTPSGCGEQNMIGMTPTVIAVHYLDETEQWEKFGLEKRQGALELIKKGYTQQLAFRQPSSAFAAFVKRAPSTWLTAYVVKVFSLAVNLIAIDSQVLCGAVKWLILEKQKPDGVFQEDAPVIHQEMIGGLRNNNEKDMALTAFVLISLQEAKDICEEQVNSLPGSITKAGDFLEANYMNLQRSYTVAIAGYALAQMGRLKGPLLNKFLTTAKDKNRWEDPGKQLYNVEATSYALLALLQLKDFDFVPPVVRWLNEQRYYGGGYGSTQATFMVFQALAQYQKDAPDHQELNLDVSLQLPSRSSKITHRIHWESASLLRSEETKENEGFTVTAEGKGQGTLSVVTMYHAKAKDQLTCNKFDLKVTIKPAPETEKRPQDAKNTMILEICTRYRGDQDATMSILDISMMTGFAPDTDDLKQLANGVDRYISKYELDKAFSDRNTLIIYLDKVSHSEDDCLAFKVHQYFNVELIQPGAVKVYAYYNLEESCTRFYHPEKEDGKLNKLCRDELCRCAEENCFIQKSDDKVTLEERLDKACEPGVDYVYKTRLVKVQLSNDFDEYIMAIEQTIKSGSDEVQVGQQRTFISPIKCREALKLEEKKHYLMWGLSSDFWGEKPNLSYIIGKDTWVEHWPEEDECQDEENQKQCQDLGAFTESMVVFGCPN
C3 convertase (C3bBb) (human), sequence (P00751 260-764, chain 2 of 2, further chain): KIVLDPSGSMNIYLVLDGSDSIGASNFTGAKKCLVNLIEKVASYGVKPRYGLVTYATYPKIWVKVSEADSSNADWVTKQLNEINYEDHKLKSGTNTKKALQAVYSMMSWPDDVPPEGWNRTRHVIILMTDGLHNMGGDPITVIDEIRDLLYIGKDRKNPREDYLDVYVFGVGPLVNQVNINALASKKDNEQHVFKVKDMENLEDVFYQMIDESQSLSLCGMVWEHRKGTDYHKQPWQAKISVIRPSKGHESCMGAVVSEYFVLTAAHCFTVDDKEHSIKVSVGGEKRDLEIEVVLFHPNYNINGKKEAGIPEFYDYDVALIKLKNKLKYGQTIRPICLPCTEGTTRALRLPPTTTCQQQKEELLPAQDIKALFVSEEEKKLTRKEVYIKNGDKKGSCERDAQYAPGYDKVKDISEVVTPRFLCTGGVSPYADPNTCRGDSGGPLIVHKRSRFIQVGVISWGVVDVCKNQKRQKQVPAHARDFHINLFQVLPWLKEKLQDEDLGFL

C3b (purified), sequence (P01024 749-1663, chain 1 of 2): as the sequence (P01024 749-1663, chain 1 of 2) above
C3b (purified), sequence (P01024 23-667, chain 2 of 2): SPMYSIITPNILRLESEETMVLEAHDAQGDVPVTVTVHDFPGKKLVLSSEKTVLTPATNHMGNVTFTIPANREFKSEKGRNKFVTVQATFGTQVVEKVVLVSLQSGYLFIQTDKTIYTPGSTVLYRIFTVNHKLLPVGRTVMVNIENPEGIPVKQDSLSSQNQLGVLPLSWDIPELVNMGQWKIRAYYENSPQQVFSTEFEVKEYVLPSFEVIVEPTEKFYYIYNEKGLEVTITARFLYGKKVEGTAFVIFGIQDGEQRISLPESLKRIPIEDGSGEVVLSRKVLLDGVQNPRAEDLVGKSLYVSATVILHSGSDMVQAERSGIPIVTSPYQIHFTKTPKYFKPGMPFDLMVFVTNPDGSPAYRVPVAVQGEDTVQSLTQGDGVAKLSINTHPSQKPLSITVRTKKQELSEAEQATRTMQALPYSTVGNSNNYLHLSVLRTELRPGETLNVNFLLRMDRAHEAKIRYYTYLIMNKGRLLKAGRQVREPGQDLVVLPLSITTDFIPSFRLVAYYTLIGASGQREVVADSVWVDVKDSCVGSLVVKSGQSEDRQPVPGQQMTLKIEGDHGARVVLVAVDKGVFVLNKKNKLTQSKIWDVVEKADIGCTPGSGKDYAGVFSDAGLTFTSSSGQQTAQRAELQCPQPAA

F1 cofactor (%) [1] [%] | Anti-C3 convertase (EC50 µg/ml) [2] [µg/mL] | Substance
100 | – | FH fragment "1NT7" (SCR 1 to 7 of human factor H) (from UniProt P08603 19-447)
100 | – | FH fragment "1NT18" (SCR 1 to 18 of human factor H) (from UniProt P08603 19-1102)
0 | – | FH fragment "7CT18" (SCR 7 to 18 of human factor H) (from UniProt P08603 389-1102)
0 | – | FH fragment "7CT20" (SCR 7 to 20 of human factor H) (from UniProt P08603 389-1231)
0 | – | FH fragment "8CT20" (SCR 8 to 20 of human factor H) (from UniProt P08603 448-1231)
100 | – | FH fragment "SCR1-4" (SCR 1 to 4 of human factor H)
100 | 0.093 | FH fragment "SCR1-6" (SCR 1 to 6 of human factor H) (from UniProt P08603 19-388)
0 | – | FH fragment "SCR6-8" (SCR 6 to 8 of human factor H)
